One molecule from US20210214447A1 (SHANGHAI INSTITUTE OF MATERIA MEDICA CHINESE ACADEMY OF …, published 2021) can be followed below.

“And” between values parts separate entries of the source, which are not always exact repeats. Equal entries are not always repeated. Where two headings read alike, the source gives them in different places.

The target of experiment [1] is T1, human AXL on the surface of tumor cells (human, UniProt P30530 26-894).
T1 construct: whole, on cells; endogenous protein of human tumor cell lines; the cell line is named under assay or readout; also called AXL on the cell surface
T1 sequence (looked up): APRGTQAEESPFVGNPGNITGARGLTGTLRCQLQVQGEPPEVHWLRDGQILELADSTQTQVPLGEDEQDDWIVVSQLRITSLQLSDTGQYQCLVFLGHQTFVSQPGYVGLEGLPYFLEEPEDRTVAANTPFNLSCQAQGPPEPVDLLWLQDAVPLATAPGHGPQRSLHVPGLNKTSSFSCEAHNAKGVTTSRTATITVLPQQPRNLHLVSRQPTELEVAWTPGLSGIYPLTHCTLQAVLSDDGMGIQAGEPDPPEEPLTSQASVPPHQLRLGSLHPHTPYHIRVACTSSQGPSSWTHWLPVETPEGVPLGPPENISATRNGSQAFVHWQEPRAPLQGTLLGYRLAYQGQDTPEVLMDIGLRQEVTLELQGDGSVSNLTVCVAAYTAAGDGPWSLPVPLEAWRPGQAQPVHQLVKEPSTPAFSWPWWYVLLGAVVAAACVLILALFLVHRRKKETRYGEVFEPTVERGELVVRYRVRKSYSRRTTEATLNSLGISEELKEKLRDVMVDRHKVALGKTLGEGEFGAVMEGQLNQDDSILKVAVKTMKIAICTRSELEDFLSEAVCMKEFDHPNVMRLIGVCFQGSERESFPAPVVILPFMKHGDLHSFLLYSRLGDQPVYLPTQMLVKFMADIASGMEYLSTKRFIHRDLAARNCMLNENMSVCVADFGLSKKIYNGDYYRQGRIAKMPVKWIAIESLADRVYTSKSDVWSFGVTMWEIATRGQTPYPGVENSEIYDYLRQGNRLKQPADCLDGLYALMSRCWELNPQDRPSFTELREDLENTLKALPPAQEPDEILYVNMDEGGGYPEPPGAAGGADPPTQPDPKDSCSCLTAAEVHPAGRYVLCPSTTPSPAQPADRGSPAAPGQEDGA
Put plainly: FACS on NCI-H1299 cells. On the procedure:
(§1) Then the obtained solutions were incubated at 4° C. for 1 h, the cells were washed twice with PBS to remove unbound primary antibody, and then the target cells were incubated with 200 μL PE-labeled secondary antibody (2 μg/mL) at 4° C. for 30 min. The cells were washed twice with PBS to remove unbound secondary antibody. Finally, the cells were resuspended in 200 μL PBS, and the binding affinity of the test antibody to AXL on the cell surface was determined by a flow cytometer (FACSCalibur)
AXL-high-expression lung cancer cells NCI-H1299 were used as target cells. 100 μL of the test antibody diluted in a 3-fold gradient was used as primary antibody, and mixed with 1×10⁵ NCI-H1299 cells suspended in 100 μL RPMI-1640 serum-free medium. The operation method was the same as above. Finally, the cells were resuspended in 200 μL PBS, and the binding affinity of the tested antibody to AXL on the cell surface was determined by a flow cytometer (FACSAria II).

In experiment [2] the target is T1, human AXL on the surface of tumor cells. Put plainly: FACS on MDA-MB-231 cells. Here is the method:
as §1

Experiment [3] shares this target. Put plainly: FACS on MDA-MB-231 cells. The source holds these as a separate data set.
Experiment [4] deals with T2, extracellular domain of human AXL protein (AXL-ECD) (human, UniProt P30530 31-449).
T2 construct: expressed in HEK293T cells; coated on the ELISA plate; also called AXL-ECD protein; human AXL extracellular domain protein
T2 sequence: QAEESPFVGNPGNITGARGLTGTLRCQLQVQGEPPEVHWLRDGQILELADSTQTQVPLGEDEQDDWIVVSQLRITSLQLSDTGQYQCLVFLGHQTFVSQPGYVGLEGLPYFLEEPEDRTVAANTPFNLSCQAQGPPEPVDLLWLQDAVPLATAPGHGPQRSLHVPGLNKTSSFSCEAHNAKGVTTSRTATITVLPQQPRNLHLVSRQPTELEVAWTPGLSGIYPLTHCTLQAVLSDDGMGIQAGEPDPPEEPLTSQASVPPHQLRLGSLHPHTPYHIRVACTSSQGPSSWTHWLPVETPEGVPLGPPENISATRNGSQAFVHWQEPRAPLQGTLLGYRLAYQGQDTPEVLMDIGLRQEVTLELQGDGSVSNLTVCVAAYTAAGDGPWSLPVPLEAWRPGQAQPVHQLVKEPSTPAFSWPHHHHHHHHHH
The experiment is described as follows: ELISA, plate-coated AXL-ECD. On the procedure: The extracellular domain of AXL protein (AXL-ECD) was diluted to […] with the coating solution, and coated onto ELISA plate with 100 μL/well at 4° C. overnight. The excess antigen was washed off. The plate was blocked with 1% BSA at room temperature for 2 h, then each monoclonal antibody in a 3-fold dilution was added at 100 µL/well. The plate was incubated at room temperature for 1 h; the unbound antibody was washed off, and appropriate concentration of anti-mouse secondary antibody labeled with horseradish peroxidase was added at 100 µL/well. The plate was incubated at room temperature for 0.5 h. The unbound secondary antibody was washed off. TMB Substrate was added and reacted for about 15 minutes. 1N HCL was added at 50 µL/well to stop the color reaction. Then the absorbance was measured at 450 nm and the obtained data was analyzed.

Experiment [5] has as its target T2, extracellular domain of human AXL …. Put plainly: ELISA, plate-coated AXL-ECD. This is another data set of the same source. A general note: An ELISA detects its analyte on a solid surface through an enzyme-linked reagent.
Experiment [6] deals with T1, human AXL on the surface of tumor cells. Put plainly: FACS on MDA-MB-231 cells, mean EC50. On the procedure:
as §1

Experiment [7] shares this target. The experiment is described as follows: FACS, 5 ug/mL antibody, LCLC-103H cells compared with AXL-low MDA-MB-453 cells. Here is the method:
(§2) 3×10⁵ tumor cells were mixed well with the antibody (final concentration was 5 μg/mL), and then incubated at 4° C. for 1 hour. The cells were washed twice with PBS to remove unbound primary antibody. Then 200 μL ([…]) PE-labeled secondary antibody was added and incubated at 4° C. for 30 min. The cells were washed twice with PBS to remove unbound secondary antibodies. Finally, the cells were resuspended in 200 μL PBS. The Binding affinity of the tested antibody to AXL on the cell surface or the overall binding fluorescence intensity (MFI) of different tumor cells at the same antibody concentration was determined with a flow cytometer (FACSCalibur).
(§3) The chimeric antibody mAb002c could specifically recognize and bind tumor cells with AXL high expression.

The target is the same in experiment [8]. The experiment is described as follows: FACS, 5 ug/mL antibody, NCI-H1299 cells compared with AXL-low MDA-MB-453 cells. Here is the method: as §2, §3
(In general: In flow cytometry, cells or beads pass a laser one at a time.)

B1: mAb002c (antibody, V domains shown)
VH: QIQLQQSGPELVKPGASVKISCKASGYPFTDFYINWVKQKPGQGLEWIGWIYPGSGNTKYNEKFKGKATLTVDTSSSTAYMQLSSLTSEDTAVYFCARSTGFFDYWGQGTTLTVSS
VL: QIVLTQSPALMSASPGEKVTMTCSASSSIGYMYWYQQKPRSSPKSWIYLTSNLASGVPARFSGSGSGTSYSLTISSMEAEDAATYYCQQWSSNPPTFGAGTKLELK
notes: also called human-mouse chimeric antibody mAb002c
The term EC50 denotes the concentration needed to bring the measured effect to its halfway point. A high value points to a need for much substance. On to B1, for which the EC50 in experiment [1] was 0.456 nM; in experiment [3], 0.16 nM and 0.169 nM; in experiment [4], 0.073 nM; in experiment [5] it was 0.082 nM and 0.076 nM; in experiment [6], 0.174 nM. Moreover, in experiment [1], the “Highest MFI value (FACSAria II)” value was determined as 2260 MFI. Moreover, in experiment [2], the “Highest MFI value (FACSCalibur)” value worked out at 242 MFI. The “Highest reading (OD450 nm)” value in experiment [4] was found to be 3.79 OD450 nm. In addition, the “fold difference of binding rate (MFI) against MDA-MB-453 cells” value in experiment [7] is 91 times; in experiment [8] it was 127 times.
